Test [1] concerns the target T1, RNAseB, glycosylated (HM N-glycan at N34, mainly Man5 and Man6) (beef (bovine), as said of the protein …, UniProt P61823 27-150, HM N-glycan (mainly Man5 and Man6) at N34).
T1 chain: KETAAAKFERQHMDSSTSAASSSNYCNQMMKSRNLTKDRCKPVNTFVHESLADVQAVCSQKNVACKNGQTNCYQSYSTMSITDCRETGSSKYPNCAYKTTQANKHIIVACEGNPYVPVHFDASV
In words: SPR. (In general: SPR reads the build-up and loss of mass on a sensor chip optically.)

The target of test [2] is RNAseB, glycosylated (HM N-glycan at N34, mainly Man5 and Man6) (beef (bovine), as said of the protein in general) (UniProt P61823). In words: SPR; glycosylated RNAseB (Man5/6) amine-coupled to a CM5 chip on flow cell 2 (150 RU), deglycosylated RNAseB on control flow cell 1; enzyme as analyte, 120 s injection, 600 s dissociation; HBS-EP running buffer; Biacore X100.

In general, koff refers to the rate constant with which the complex falls apart. Higher therefore signals fast dissociation. The Kd is the constant that tells how readily two partners part at equilibrium. Lower therefore signals a tighter complex.

B1: BT1285_(D161A-E163A), catalytically inactive variant of the GH18 endo-β-N-acetylglucosaminidase BT1285 (enzyme)
chain: MPVNQSDNNQSEVVTRSATGIKNIVYIEVNDINPLNAGSYIMDDAPFFDYVILFAANIRGVGSDATLYNNPNVQYILDHKDTLIKPLQDKGIKVLLGLLGDHTGLGFANMNSAQTEQFATAVANAVSQYGLDGVDFADAWAEYGRNGYPSGSTGSFSNLITALHNKMPGKTITVFNYGYTSELTGVNSYIDYGIYAFFNSPSWSTGFGMPNSKFAPYTINLNSAPSAASAQLYSGQVASKGYGAIGYYDLRANNIVSVLNGVAKGAFKSTCTYDGNSYPKNY
In test [1], B1 showed an off-rate constant (koff) of 0.000419 s⁻¹. Also, the Kd in test [2] was 3.5 nM.

The values are drawn from article PMC11180146 (2024).
